Measurements published in US20090137002A1 (published 2009).

T1: recombinant mouse EphB3-Fc fusion protein (mouse, UniProt P54754 30-537, limits assumed)
T1 construct: also called mEphB3; not shown: Fc part, not described
T1 sequence (looked up): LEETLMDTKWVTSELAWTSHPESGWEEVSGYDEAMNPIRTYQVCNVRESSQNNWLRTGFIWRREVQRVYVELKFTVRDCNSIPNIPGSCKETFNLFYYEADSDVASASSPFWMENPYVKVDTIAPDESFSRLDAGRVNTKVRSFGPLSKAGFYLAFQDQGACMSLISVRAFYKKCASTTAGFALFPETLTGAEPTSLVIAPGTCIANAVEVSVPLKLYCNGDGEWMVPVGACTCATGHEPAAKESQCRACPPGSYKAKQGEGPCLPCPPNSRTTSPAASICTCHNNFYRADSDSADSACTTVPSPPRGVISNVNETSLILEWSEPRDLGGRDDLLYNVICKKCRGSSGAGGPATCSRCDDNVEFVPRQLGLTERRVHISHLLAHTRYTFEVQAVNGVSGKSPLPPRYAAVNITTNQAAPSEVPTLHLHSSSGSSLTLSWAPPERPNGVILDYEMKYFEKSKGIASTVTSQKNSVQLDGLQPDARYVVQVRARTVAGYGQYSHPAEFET

T2: recombinant mouse EphB6 (mouse, UniProt O08644 33-591, limits assumed)
T2 construct: also called mEphB6
T2 sequence (looked up): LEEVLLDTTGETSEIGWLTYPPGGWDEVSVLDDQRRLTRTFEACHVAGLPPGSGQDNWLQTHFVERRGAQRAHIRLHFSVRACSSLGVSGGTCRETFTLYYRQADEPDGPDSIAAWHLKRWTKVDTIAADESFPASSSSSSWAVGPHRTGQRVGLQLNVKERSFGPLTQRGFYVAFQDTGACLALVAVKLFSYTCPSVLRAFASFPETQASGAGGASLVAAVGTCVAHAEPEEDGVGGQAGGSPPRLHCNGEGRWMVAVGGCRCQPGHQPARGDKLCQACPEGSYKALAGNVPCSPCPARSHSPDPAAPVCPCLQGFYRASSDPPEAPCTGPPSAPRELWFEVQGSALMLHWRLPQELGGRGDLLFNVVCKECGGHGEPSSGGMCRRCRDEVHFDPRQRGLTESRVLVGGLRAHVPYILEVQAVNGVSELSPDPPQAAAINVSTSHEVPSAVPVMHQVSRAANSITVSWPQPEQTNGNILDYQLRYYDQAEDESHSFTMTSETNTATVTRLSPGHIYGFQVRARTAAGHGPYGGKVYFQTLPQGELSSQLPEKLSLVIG

T3: rat EphB1 (rat, UniProt P09759 18-538, limits assumed)
T3 sequence (looked up): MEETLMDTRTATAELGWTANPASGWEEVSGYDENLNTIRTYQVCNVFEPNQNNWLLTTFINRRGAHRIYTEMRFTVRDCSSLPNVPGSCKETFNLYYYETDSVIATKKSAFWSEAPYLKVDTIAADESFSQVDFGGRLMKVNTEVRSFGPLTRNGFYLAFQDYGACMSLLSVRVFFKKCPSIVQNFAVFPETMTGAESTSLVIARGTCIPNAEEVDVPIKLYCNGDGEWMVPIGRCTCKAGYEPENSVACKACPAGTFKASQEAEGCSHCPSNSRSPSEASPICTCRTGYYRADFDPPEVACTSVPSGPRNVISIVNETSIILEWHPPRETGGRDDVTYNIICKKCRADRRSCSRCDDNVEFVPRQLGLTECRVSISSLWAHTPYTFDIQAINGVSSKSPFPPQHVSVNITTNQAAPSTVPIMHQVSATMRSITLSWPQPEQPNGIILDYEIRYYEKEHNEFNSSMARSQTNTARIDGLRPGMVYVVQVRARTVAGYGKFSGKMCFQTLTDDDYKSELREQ

T4: recombinant human EphB4-Fc fusion protein (human, UniProt P54760 16-539)
T4 construct: extracellular domain; also called hEphB4; hu EphB4-Fc
T4 sequence (looked up): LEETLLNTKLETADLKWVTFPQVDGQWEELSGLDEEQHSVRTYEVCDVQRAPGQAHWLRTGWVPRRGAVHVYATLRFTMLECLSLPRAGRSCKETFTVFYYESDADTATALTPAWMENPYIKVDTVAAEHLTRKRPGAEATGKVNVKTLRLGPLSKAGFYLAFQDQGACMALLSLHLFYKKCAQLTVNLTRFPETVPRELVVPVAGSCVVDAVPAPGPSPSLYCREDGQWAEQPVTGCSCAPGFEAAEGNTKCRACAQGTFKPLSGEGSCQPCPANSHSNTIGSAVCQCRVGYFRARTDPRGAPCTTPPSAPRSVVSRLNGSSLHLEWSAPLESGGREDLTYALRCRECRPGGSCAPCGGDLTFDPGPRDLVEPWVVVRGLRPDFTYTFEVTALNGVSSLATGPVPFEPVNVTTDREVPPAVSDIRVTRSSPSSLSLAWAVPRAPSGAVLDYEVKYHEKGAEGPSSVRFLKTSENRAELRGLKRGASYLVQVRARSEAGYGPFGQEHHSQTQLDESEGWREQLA


How the values were obtained:
[1] = target: T1, recombinant mouse EphB3-Fc fusion …; test: ELISA on coated receptor
Description: (§1) A 96-well plate was coated with recombinant mEphB1, -2, -3, -4, -6, mEphA4 and hEphB4 in PBS o/n at 4° C. (5 μg/mL; 100 μL/well). The next day, the antigen was discarded and the plate blocked with 3% BSA/PBS (300 μl/well) for 2 hrs at room temperature (RT). Blocking solution was discarded and anti-EphB4 Fabs were added to the wells at a concentration of 20 μg/mL in 1% BSA/PBS and incubated for 1 hr at RT. Fabs were discarded and the plate was washed 3× with PBS. Anti-human F(ab′)₂—HRP was added at a concentration recommended by the manufacturer in 1% BSA/PBS and incubated for 1 hr at RT. The plate was washed 3× with PBS and 100 μL/well chemifluorescent substrate was added. After development, fluorescence was measured in a fluorescence reader.

[2] = target: T2, recombinant mouse EphB6; test: ELISA on coated receptor
Description: as §1

[3] = target: T3, rat EphB1; test: ELISA on coated receptor
[4] = target: T4, recombinant human EphB4-Fc fusion …; test: competition ELISA, Fab against EphrinB2-Fc on immobilized human EphB4
Description: IC₅₀ values were determined using recombinant antigen (murine and human EphB4) in an ELISA and on transfected cells in a FACS analysis (human EphB4 receptor).
Binding of (a fixed concentration of) the ligand EphrinB2-Fc to immobilized EphB4 receptor on an ELISA plate or on transfected cells is titrated with anti-EphB4 Fab. The IC₅₀ is determined as the amount of Fab at which the binding of EphrinB2 is inhibited by 50%.

[5] = target: T4, recombinant human EphB4-Fc fusion …; test: SET (MSD), solution equilibrium titration
Description: Two independent measurements were performed on human and murine EphB4-Fc.

binding result [1]	binding result [2]	binding result [3]	IC50 [4]	Kd [5]	Binder
no binding (tested: 20 µg/mL)	no binding (tested: 20 µg/mL)	no binding (tested: 20 µg/mL)	65 µg/mL		MOR03639 Fab (Fab, V domains shown, Monomeric HuCAL Fab (VH3, lambda3), purified, MH-tagged) VH: QVQLVESGGGLVQPGGSLRLSCAASGFTFSNYYLHWVRQAPGKGLEWVSGISYSGSSTYYADSVKGRFTISRDNSKNTLYLQMNSLRAEDTAVYYCARFYQRRQIPHGYDVWGQGTLVTVSS VL: DIELTQPPSVSVAPGQTARISCSGDNIGDYYVHWYQQKPGQAPVLVIYRDSNRPSGIPERFSGSNSGNTATLTISGTQAEDEADYYCGSYDMPFGGTVFGGGTKLTVLG
no binding (tested: 20 µg/mL)	no binding (tested: 20 µg/mL)	no binding (tested: 20 µg/mL)	5 µg/mL	> 5 nM	MOR03641 Fab (Fab, V domains shown, Monomeric HuCAL Fab (VH1A, kappa1), purified, MH-tagged; also called 3541 [sic]) VH: QVQLVQSGAEVKKPGSSVKVSCKASGGTFSTYAISWVRQAPGQGLEWMGRIIPIFGTANYAQKFQGRVTITADESTSTAYMELSSLRSEDTAVYYCARSSYTILTTYYNYNAMDNWGQGTLVTVSS VL: DIQMTQSPSSLSASVGDRVTITCRASQNINNFLNWYQQKPGKAPKLLIYGSSILQSGVPSRFSGSGSGTDFTLTISSLQPEDFAVYYCHQVSDTSDTFGQGTKVEIKR
no binding (tested: 20 µg/mL)	no binding (tested: 20 µg/mL)		33 µg/mL	1.05 nM	MOR03640 Fab (Fab, V domains shown, Monomeric HuCAL Fab, purified, MH-tagged) VH: QVQLVESGGGLVQPGGSLRLSCAASGFTFNNSWMSWVRQAPGKGLEWVSNITSSSSMTHYADSVKGRFTISRDNSKNTLYLQMNSLRAEDTAVYYCARKGMSFYNNKYAKSMFDLWGQGTLVTVSS VL: DIELTQPPSVSVAPGQTARISCSGDNLGKKYVHWYQQKPGQAPVLVIYYDSKRPSGIPERFSGSNSGNTATLTISGTQAEDEADYYCSAWTTTMMHIVFGGGTKLTVLG
